{"source": "paper doi:10.1101/2024.07.25.605195", "about": "(bioRxiv, 2024)", "proteins": {"B1": {"name": "mouse seipin, recombinant, purified from Expi293 cells co-expressing Adig (natural protein, UniProt Q9Z2E9 1-383, looked up)", "chain": "MVNDPPVPALLWAQEVGHVLAGRARRLMLQFGVLFCTILLLLWVSVFLYGSFYYSYMPTVSHLSPVHFHYRTDCDSSTASLCSFPVANVSLAKSGRDRVLMYGQPYRVTLELELPESPVNQDLGMFLVTVSCYTRGGRIISTSSRSVMLHYRSQLLQVLDTLLFSSLLLFGFAEQKQLLEVELYSDYRENSYVPTTGAIIEIHSKRIQMYGAYLRIHAHFTGLRYLLYNFPMTCAFVGVASNFTFLSVIVLFSYMQWVWGAVWPRHRFSLQVNIRQRDNSHHGAPRRISRHQPGQESTQQSDVTEDGESPEDPSGTEGQLSEEEKPEKRPLNGEEEQEPEASDGSWEDAALLTEANPPTSASASALAPETLGSLRQRPTCSSS"}}, "molecular_target": "the molecule itself", "experiment": "cryo-EM structure", "note": "Values joined by “and” are separate entries in the source; they are usually repeats but may differ in a detail not shown here. Equal entries are not always repeated.", "data": [{"protein": "B1", "values": [{"measurement": "stoichiometry N", "value": "11 and 12"}]}]}
